The labels stand for the following.
B1: Eukaryotic initiation factor 4F subunit p150 (Saccharomyces cerevisiae), P39935 (parent)
chain: MTDETAHPTQSASKQESAALKQTGDDQQESQQQRGYTNYNNGSNYTQKKPYNSNRPHQQRGGKFGPNRYNNRGNYNGGGSFRGGHMGANSSNVPWTGYYNNYPVYYQPQQMAAAGSAPANPIPVEEKSPVPTKIEITTKSGEHLDLKEQHKAKLQSQERSTVSPQPESKLKETSDSTSTSTPTPTPSTNDSKASSEENISEAEKTRRNFIEQVKLRKAALEKKRKEQLEGSSGNNNIPMKTTPENVEEKGSDKPEVTEKTKPAEEKSAEPEVKQETPAEEGEQGEKGQIKEESTPKVLTFAERLKLKKQQKEREEKTEGKENKEVPVQEETKSAIESAPVPPSEQVKEETEVAETEQSNIDESATTPAIPTKSDEAEAEVEAEAGDAGTKIGLEAEIETTTDETDDGTNTVSHILNVLKDATPIEDVFSFNYPEGIEGPDIKYKKEHVKYTYGPTFLLQFKDKLNVKADAEWVQSTASKIVIPPGMGRGNRSRDSGRFGNNSSRGHDFRNTSVRNMDDRANSRTSSKRRSKRMNDDRRSNRSYTSRRDRERGSYRNEEKREDDKPKEEVAPLVPSANRWVPKFKSKKTEKKLAPDGKTELLDKDEVERKMKSLLNKLTLEMFDAISSEILAIANISVWETNGETLKAVIEQIFLKACDEPHWSSMYAQLCGKVVKELNPDITDETNEGKTGPKLVLHYLVARCHAEFDKGWTDKLPTNEDGTPLEPEMMSEEYYAAASAKRRGLGLVRFIGFLYRLNLLTGKMMFECFRRLMKDLTDSPSEETLESVVELLNTVGEQFETDSFRTGQATLEGSQLLDSLFGILDNIIQTAKISSRIKFKLIDIKELRHDKNWNSDKKDNGPKTIQQIHEEEERQRQLKNNSRSNSRRTNNSSNRHSFRRDAPPASKDSFITTRTYSQRNSQRAPPPKEEPAAPTSTATNMFSALMGESDDEE
partner: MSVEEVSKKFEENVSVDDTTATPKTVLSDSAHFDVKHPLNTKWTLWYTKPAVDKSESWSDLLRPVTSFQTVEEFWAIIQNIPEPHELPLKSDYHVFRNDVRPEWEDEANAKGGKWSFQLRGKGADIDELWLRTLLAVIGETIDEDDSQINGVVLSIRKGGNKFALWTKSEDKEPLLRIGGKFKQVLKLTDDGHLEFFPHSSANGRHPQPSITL

In this assay the parent is B1. The following applies: with if4e_yeast CDC33, P07260.
For the variant L457A;L458A, the “effect of a mutation on the interaction” value is on record as “decreasing interaction”. As for V213A;K214A;L215A;R216A;L457A;L458A, the “effect of a mutation on the interaction” value was “decreasing interaction strength”.
